From US20210054097A1
Changes are numbered by the printed parent chain.

Key:
Test in all cases: peptide ELISA
[1] = biological target: T1, FX activation peptide 12-mer … (human)
T1 sequence (peptide, C-terminally conjugated to biotin): LLDFNQTQPERG

[2] = biological target: T2, FX activation peptide 12-mer … (human); remark: listed apart in the source
T2 sequence (peptide, C-terminally conjugated to biotin): FDLLDFNQTQPE

[3] = biological target: T3, FX activation peptide 12-mer … (human); remark: listed apart in the source
T3 sequence (peptide, C-terminally conjugated to biotin): LDPTENPFDLLD

[4] = biological target: T4, FX activation peptide 12-mer … (human); remark: listed apart in the source
T4 sequence (peptide, C-terminally conjugated to biotin): PFDLLDFNQTQP

[5] = biological target: T5, FX activation peptide 12-mer … (human); remark: listed apart in the source
T5 sequence (peptide, C-terminally conjugated to biotin): DPTENPFDLLDF

[6] = biological target: T6, FX activation peptide 12-mer … (human); remark: listed apart in the source
T6 sequence (peptide, C-terminally conjugated to biotin): PTENPFDLLDFN

[7] = biological target: T7, FX activation peptide 12-mer … (human); remark: listed apart in the source
T7 sequence (peptide, C-terminally conjugated to biotin): APDSITWKPYDA

[8] = biological target: T8, FX activation peptide 12-mer … (human); remark: listed apart in the source
T8 sequence (peptide, C-terminally conjugated to biotin): ATSSSGEAPDSI

[9] = biological target: T9, FX activation peptide 12-mer … (human); remark: listed apart in the source
T9 sequence (peptide, C-terminally conjugated to biotin): DAADLDPTENPF

[10] = biological target: T10, FX activation peptide 12-mer … (human); remark: listed apart in the source
T10 sequence (peptide, C-terminally conjugated to biotin): DFNQTQPERGDN

[11] = biological target: T11, FX activation peptide 12-mer … (human); remark: listed apart in the source
T11 sequence (peptide, C-terminally conjugated to biotin): DLDPTENPFDLL

[12] = biological target: T12, FX activation peptide 12-mer … (human); remark: listed apart in the source
T12 sequence (peptide, C-terminally conjugated to biotin): DLLDFNQTQPER

[13] = biological target: T13, FX activation peptide 12-mer … (human); remark: listed apart in the source
T13 sequence (peptide, C-terminally conjugated to biotin): DSITWKPYDAAD

[14] = biological target: T14, FX activation peptide 12-mer … (human); remark: listed apart in the source
T14 sequence (peptide, C-terminally conjugated to biotin): EAPDSITWKPYD

[15] = biological target: T15, FX activation peptide 12-mer … (human); remark: listed apart in the source
T15 sequence (peptide, C-terminally conjugated to biotin): ENPFDLLDFNQT

[16] = biological target: T16, FX activation peptide 12-mer … (human); remark: listed apart in the source
T16 sequence (peptide, C-terminally conjugated to biotin): FNQTQPERGDNN

[17] = biological target: T17, FX activation peptide 12-mer … (human); remark: listed apart in the source
T17 sequence (peptide, C-terminally conjugated to biotin): GEAPDSITWKPY

[18] = biological target: T18, FX activation peptide 12-mer … (human); remark: listed apart in the source
T18 sequence (peptide, C-terminally conjugated to biotin): ITWKPYDAADLD

[19] = biological target: T19, FX activation peptide 12-mer … (human); remark: listed apart in the source
T19 sequence (peptide, C-terminally conjugated to biotin): NPFDLLDFNQTQ

[20] = biological target: T20, FX activation peptide 12-mer … (human); remark: listed apart in the source
T20 sequence (peptide, C-terminally conjugated to biotin): NQTQPERGDNNL

[21] = biological target: T21, FX activation peptide 12-mer … (human); remark: listed apart in the source
T21 sequence (peptide, C-terminally conjugated to biotin): PDSITWKPYDAA

[22] = biological target: T22, FX activation peptide 12-mer … (human); remark: listed apart in the source
T22 sequence (peptide, C-terminally conjugated to biotin): PYDAADLDPTEN

[23] = biological target: T23, FX activation peptide 12-mer … (human); remark: listed apart in the source
T23 sequence (peptide, C-terminally conjugated to biotin): SGEAPDSITWKP

[24] = biological target: T24, FX activation peptide 12-mer … (human); remark: listed apart in the source
T24 sequence (peptide, C-terminally conjugated to biotin): SITWKPYDAADL

[25] = biological target: T25, FX activation peptide 12-mer … (human); remark: listed apart in the source
T25 sequence (peptide, C-terminally conjugated to biotin): SSGEAPDSITWK

[26] = biological target: T26, FX activation peptide 12-mer … (human); remark: listed apart in the source
T26 sequence (peptide, C-terminally conjugated to biotin): SVAQATSSSGEA

[27] = biological target: T27, FX activation peptide 12-mer … (human); remark: listed apart in the source
T27 sequence (peptide, C-terminally conjugated to biotin): TENPFDLLDFNQ

[28] = biological target: T28, FX activation peptide 12-mer … (human); remark: listed apart in the source
T28 sequence (peptide, C-terminally conjugated to biotin): TSSSGEAPDSIT

[29] = biological target: T29, FX activation peptide 12-mer … (human); remark: listed apart in the source
T29 sequence (peptide, C-terminally conjugated to biotin): TWKPYDAADLDP

[30] = biological target: T30, FX activation peptide 12-mer … (human); remark: listed apart in the source
T30 sequence (peptide, C-terminally conjugated to biotin): VAQATSSSGEAP

[31] = biological target: T31, FX activation peptide 12-mer … (human); remark: listed apart in the source
T31 sequence (peptide, C-terminally conjugated to biotin): YDAADLDPTENP

B1: Nb 702C12 (VHH, not shown: small tags and cut ends)
VHH: EVQLVESGGGVVQPGGSLRLSCVASGRTFSRYAMGWFRQAPGKEREFVAAISRRGGSTNYADSVKGRFTISRDNSKNTVYLQMNSLRPEDTALYYCAADYSSGDGYLDYWGQGTLVTVSS
Q: With B1 as the binder, how does the ELISA signal relative to background [1] read?
A: 1.88

B2: Nb 729A04 (VHH, not shown: small tags and cut ends)
VHH: EVQLVESGGGVVQPGGSLRLSCAASGFTFSDYAMSWVRQAPGKGLEWVSGITSGGGRTYYADSVKGRFTISRDNSKNTLYLQMNSLRPEDTALYYCAAVRTLGLRGSYDYWGQGTLVTVSS
Q: Which results are given for B2?
A: ELISA signal relative to background [2]: 1.58; ELISA signal relative to background [3]: 1.91; ELISA signal relative to background [4]: 1.41

B3: Nb 730C03 (VHH, not shown: small tags and cut ends)
VHH: B2 VHH with A23V, G55S, L79V, V99A, R100I, T101L, L102R, L104Y, G106K, S107T
Q: How did the ELISA signal relative to background [5] turn out when B3 was run?
A: 1.68

Q: And the ELISA signal relative to background [6]?
A: 1.62

B4: Nb 721E08 (VHH, not shown: small tags and cut ends)
VHH: EVQLVESGGGVVQPGGSLRLSCAASGRTFSTYSMGWFRQAPGKEREFVAAITRRGSRTYYADSVKGRFTISRDNSKNTVYLQMNSLRPEDTALYYCAADRRPADSYLDYWGQGTLVTVSS
Q: Which results are given for B4?
A: ELISA signal relative to background [7]: 2.29; ELISA signal relative to background [8]: 2.27; ELISA signal relative to background [9]: 2.3; ELISA signal relative to background [10]: 2.25; ELISA signal relative to background [11]: 2.48; ELISA signal relative to background [12]: 2.45; ELISA signal relative to background [5]: 2.27; ELISA signal relative to background [13]: 2.18; ELISA signal relative to background [14]: 2.35; ELISA signal relative to background [15]: 2.88; ELISA signal relative to background [2]: 3.01; ELISA signal relative to background [16]: 2.16; ELISA signal relative to background [17]: 2.26; ELISA signal relative to background [18]: 2.08; ELISA signal relative to background [3]: 2.29; ELISA signal relative to background [1]: 2.3; ELISA signal relative to background [19]: 2.28; ELISA signal relative to background [20]: 2.02; ELISA signal relative to background [21]: 2.4; ELISA signal relative to background [4]: 2.5; ELISA signal relative to background [6]: 2.35; ELISA signal relative to background [22]: 2.05; ELISA signal relative to background [23]: 2.15; ELISA signal relative to background [24]: 2.28; ELISA signal relative to background [25]: 2.01; ELISA signal relative to background [26]: 2.25; ELISA signal relative to background [27]: 2.54; ELISA signal relative to background [28]: 2.2; ELISA signal relative to background [29]: 2.26; ELISA signal relative to background [30]: 2.13; ELISA signal relative to background [31]: 2.21

B5: Nb 701C06 (VHH, not shown: small tags and cut ends)
VHH: B4 VHH with S33A, T52S, S56G, R100A, R101T, P102A, A103R, S105G, Y106L
Q: How did the ELISA signal relative to background [5] turn out when B5 was run?
A: 1.51

Q: And the ELISA signal relative to background [15]?
A: 1.56

Q: What about the ELISA signal relative to background [2] of the same binder?
A: 1.41

Q: And the ELISA signal relative to background [19]?
A: 1.29

Q: What about the ELISA signal relative to background [4] of the same binder?
A: 1.5

Q: And the ELISA signal relative to background [6]?
A: 1.61

Q: And the ELISA signal relative to background [27]?
A: 1.74

B6: Nb 701D07 (VHH, not shown: small tags and cut ends)
VHH: B4 VHH with R27G, F29L, T31R, S33A, R100L, R101A, A103G, S105Y, Y106A
Q: Which results are given for B6?
A: ELISA signal relative to background [5]: 1.39; ELISA signal relative to background [15]: 1.27; ELISA signal relative to background [19]: 0.96; ELISA signal relative to background [4]: 1.13; ELISA signal relative to background [6]: 1.29; ELISA signal relative to background [27]: 1.44

B7: Nb 729C08 (VHH, not shown: small tags and cut ends)
VHH: EVQLVESGGGVVQPGGSLRLSCAASGFTFSDYAMSWVRQAPGKGLEWVSGITGGGRTYYADSVKGRFTISRDNSKNTLYLQMNSLRPEDTALYYCAAAILTRTRRTYDYWGQGTLVTVSS
Q: With B7 as the binder, how does the ELISA signal relative to background [5] read?
A: 1.95

Q: What about the ELISA signal relative to background [3] of the same binder?
A: 1.58
